Test results published in patent US20240182553A1 (NANJING GENSCRIPT BIOTECH, published 2024).

Target: T1, Ang2 protein (R&D system) (UniProt O15123 19-496)
T1 sequence (looked up): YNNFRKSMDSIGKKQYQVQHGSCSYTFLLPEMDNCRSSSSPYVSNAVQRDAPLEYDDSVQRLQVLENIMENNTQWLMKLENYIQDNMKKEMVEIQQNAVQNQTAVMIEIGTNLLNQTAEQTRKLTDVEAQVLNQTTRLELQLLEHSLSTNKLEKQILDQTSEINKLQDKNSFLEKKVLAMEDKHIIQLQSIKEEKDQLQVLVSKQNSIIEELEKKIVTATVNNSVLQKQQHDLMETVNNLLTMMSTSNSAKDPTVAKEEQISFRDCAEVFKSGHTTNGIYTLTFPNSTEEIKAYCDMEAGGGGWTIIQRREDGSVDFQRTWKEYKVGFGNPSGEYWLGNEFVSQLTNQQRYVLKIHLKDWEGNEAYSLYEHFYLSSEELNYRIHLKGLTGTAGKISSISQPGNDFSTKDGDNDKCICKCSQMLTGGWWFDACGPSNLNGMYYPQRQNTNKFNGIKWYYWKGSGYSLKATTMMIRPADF
Experiment: cell-based or functional assay

B1: 7F10B2-VL3-vegfr-VH3 (bispecific antibody, human IgG4 S228P, kappa)
heavy: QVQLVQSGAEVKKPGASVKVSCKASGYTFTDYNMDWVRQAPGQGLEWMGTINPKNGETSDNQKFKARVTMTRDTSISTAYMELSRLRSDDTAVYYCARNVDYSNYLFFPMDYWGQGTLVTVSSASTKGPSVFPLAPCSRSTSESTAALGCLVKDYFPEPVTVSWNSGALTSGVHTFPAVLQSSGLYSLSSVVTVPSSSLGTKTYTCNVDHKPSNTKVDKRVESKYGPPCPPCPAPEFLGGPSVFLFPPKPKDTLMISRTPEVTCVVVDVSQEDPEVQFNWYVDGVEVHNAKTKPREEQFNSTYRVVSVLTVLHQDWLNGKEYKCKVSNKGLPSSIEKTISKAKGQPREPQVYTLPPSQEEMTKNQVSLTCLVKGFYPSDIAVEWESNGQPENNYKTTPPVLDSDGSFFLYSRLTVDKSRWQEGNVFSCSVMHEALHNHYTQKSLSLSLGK
light: DIQMTQSPSSLSASVGDRVTITCKASQSVSNDVAWYQQKPGKAPKLLIYYASNRFTGVPSRFSGSGSGTDFTLTISSLQPEDFATYYCQQDYSSRTFGGGTKVEIKRTVAAPSVFIFPPSDEQLKSGTASVVCLLNNFYPREAKVQWKVDNALQSGNSQESVTEQDSKDSTYSLSSTLTLSKADYEKHKVYACEVTHQGLSSPVTKSFNRGECESKYGPPSPPSPSDTGRPFVEMYSEIPEIIHMTEGRELVIPCRVTSPNITVTLKKFPLDTLIPDGKRIIWDSRKGFIISNATYKEIGLLTCEATVNGHLYKTNYLTHRQTNTIIDVVLSPSHGIELSVGEKLVLNCTARTELNVGIDFNWEYPSSKHQHKKLVNRDLKTQSGSEMKKFLSTLTIDGVTRSDQGLYTCAASSGLMTKKNSTFVRVHEK
EC50 (phospho-Akt Ser473 HTRF dose-response, HUVEC + Ang2): 2.27 nM | Span (phospho-Akt Ser473 HTRF dose-response, HUVEC + Ang2): 7460 HTRF ratio (665nm/620nm)

B2: hABTAA-VH-vegfrVL (bispecific antibody, human IgG4 S228P, kappa)
heavy chain: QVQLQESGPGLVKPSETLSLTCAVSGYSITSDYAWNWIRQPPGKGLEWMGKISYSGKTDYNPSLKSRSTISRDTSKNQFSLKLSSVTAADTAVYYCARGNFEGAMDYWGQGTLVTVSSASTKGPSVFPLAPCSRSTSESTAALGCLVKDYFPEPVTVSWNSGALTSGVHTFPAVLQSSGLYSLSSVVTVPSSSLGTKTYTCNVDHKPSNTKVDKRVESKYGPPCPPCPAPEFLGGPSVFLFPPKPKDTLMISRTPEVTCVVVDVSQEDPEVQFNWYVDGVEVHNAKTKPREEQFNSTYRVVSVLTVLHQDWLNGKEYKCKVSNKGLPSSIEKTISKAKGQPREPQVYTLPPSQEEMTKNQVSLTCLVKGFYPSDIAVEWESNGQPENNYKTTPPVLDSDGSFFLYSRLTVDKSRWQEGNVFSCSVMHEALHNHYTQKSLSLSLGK
light chain fusion polypeptide (VEGF-trap at N' of LC): SDTGRPFVEMYSEIPEIIHMTEGRELVIPCRVTSPNITVTLKKFPLDTLIPDGKRIIWDSRKGFIISNATYKEIGLLTCEATVNGHLYKTNYLTHRQTNTIIDVVLSPSHGIELSVGEKLVLNCTARTELNVGIDFNWEYPSSKHQHKKLVNRDLKTQSGSEMKKFLSTLTIDGVTRSDQGLYTCAASSGLMTKKNSTFVRVHEKGGGGSGGGGSGGGGSDIQMTQSPSSLSASVGDRVTITCKASQSVSNDVAWYQQKPGKAPKLLIYYASNRYPGVPSRFSGSGSGTDFTLTISSLQPEDFATYYCQQDYSSPWTFGQGTKLEIKRTVAAPSVFIFPPSDEQLKSGTASVVCLLNNFYPREAKVQWKVDNALQSGNSQESVTEQDSKDSTYSLSSTLTLSKADYEKHKVYACEVTHQGLSSPVTKSFNRGEC
EC50 (phospho-Akt Ser473 HTRF dose-response, HUVEC + Ang2): 4.36 nM | Span (phospho-Akt Ser473 HTRF dose-response, HUVEC + Ang2): 6380 HTRF ratio (665nm/620nm)

B3: vegfr-5A7B9-VL1.1-VH3 (bispecific antibody, human IgG4 S228P, kappa)
heavy: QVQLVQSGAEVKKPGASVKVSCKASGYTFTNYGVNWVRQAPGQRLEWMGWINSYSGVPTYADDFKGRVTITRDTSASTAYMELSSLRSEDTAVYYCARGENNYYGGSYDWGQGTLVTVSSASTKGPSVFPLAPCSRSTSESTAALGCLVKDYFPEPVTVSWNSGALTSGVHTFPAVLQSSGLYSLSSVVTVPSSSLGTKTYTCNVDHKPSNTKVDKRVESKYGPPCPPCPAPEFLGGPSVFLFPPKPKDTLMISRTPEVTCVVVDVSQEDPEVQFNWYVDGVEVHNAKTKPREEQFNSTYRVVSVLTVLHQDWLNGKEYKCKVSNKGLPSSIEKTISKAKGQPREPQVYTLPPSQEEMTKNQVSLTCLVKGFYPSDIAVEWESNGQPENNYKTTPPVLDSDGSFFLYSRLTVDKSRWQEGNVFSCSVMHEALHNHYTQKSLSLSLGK
light: SDTGRPFVEMYSEIPEIIHMTEGRELVIPCRVTSPNITVTLKKFPLDTLIPDGKRIIWDSRKGFIISNATYKEIGLLTCEATVNGHLYKTNYLTHRQTNTIIDVVLSPSHGIELSVGEKLVLNCTARTELNVGIDFNWEYPSSKHQHKKLVNRDLKTQSGSEMKKFLSTLTIDGVTRSDQGLYTCAASSGLMTKKNSTFVRVHEKGGGGSGGGGSGGGGSDIQMTQSPSSLSASVGDRVTITCKASQSVSNDVAWYQQKPGKAPKLLIYYASNRYTGVPSRFSGSGSGTDFTLTISSLQPEDFATYFCQQDYSSPLTFGGGTKLEIKRTVAAPSVFIFPPSDEQLKSGTASVVCLLNNFYPREAKVQWKVDNALQSGNSQESVTEQDSKDSTYSLSSTLTLSKADYEKHKVYACEVTHQGLSSPVTKSFNRGEC
EC50 (phospho-Akt Ser473 HTRF dose-response, HUVEC + Ang2): 4.72 nM | Span (phospho-Akt Ser473 HTRF dose-response, HUVEC + Ang2): 7740 HTRF ratio (665nm/620nm)

B4: hABTAA-VH-VLvegfr (bispecific antibody, human IgG4 S228P, kappa)
heavy chain: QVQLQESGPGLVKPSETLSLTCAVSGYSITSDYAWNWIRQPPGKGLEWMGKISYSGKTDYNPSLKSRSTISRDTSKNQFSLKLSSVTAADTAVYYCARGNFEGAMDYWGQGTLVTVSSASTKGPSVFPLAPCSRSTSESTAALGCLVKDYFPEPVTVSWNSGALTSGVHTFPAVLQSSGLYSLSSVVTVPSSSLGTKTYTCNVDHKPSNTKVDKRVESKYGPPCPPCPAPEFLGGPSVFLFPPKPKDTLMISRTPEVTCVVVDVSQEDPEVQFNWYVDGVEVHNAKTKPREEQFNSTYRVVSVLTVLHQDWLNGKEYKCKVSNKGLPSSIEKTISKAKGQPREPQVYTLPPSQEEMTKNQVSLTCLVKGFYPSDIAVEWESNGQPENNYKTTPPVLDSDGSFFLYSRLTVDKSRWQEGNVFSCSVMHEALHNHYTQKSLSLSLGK
light chain fusion polypeptide (VEGF-trap at C' of LC): DIQMTQSPSSLSASVGDRVTITCKASQSVSNDVAWYQQKPGKAPKLLIYYASNRYPGVPSRFSGSGSGTDFTLTISSLQPEDFATYYCQQDYSSPWTFGQGTKLEIKRTVAAPSVFIFPPSDEQLKSGTASVVCLLNNFYPREAKVQWKVDNALQSGNSQESVTEQDSKDSTYSLSSTLTLSKADYEKHKVYACEVTHQGLSSPVTKSFNRGECESKYGPPSPPSPSDTGRPFVEMYSEIPEIIHMTEGRELVIPCRVTSPNITVTLKKFPLDTLIPDGKRIIWDSRKGFIISNATYKEIGLLTCEATVNGHLYKTNYLTHRQTNTIIDVVLSPSHGIELSVGEKLVLNCTARTELNVGIDFNWEYPSSKHQHKKLVNRDLKTQSGSEMKKFLSTLTIDGVTRSDQGLYTCAASSGLMTKKNSTFVRVHEK
EC50 (phospho-Akt Ser473 HTRF dose-response, HUVEC + Ang2): 3.25 nM | Span (phospho-Akt Ser473 HTRF dose-response, HUVEC + Ang2): 5440 HTRF ratio (665nm/620nm)

B5: hABTAA anti-Ang2 antibody (antibody, human IgG4 S228P, kappa, V domains shown)
VH: QVQLQESGPGLVKPSETLSLTCAVSGYSITSDYAWNWIRQPPGKGLEWMGKISYSGKTDYNPSLKSRSTISRDTSKNQFSLKLSSVTAADTAVYYCARGNFEGAMDYWGQGTLVTVSS
VL: DIQMTQSPSSLSASVGDRVTITCKASQSVSNDVAWYQQKPGKAPKLLIYYASNRYPGVPSRFSGSGSGTDFTLTISSLQPEDFATYYCQQDYSSPWTFGQGTKLEIKR
EC50 (phospho-Akt Ser473 HTRF dose-response, HUVEC + Ang2): 2.53 nM | Span (phospho-Akt Ser473 HTRF dose-response, HUVEC + Ang2): 5590 HTRF ratio (665nm/620nm)

B6: hABTAA-VHvegfr-VL (bispecific antibody, human IgG4 S228P, kappa)
heavy: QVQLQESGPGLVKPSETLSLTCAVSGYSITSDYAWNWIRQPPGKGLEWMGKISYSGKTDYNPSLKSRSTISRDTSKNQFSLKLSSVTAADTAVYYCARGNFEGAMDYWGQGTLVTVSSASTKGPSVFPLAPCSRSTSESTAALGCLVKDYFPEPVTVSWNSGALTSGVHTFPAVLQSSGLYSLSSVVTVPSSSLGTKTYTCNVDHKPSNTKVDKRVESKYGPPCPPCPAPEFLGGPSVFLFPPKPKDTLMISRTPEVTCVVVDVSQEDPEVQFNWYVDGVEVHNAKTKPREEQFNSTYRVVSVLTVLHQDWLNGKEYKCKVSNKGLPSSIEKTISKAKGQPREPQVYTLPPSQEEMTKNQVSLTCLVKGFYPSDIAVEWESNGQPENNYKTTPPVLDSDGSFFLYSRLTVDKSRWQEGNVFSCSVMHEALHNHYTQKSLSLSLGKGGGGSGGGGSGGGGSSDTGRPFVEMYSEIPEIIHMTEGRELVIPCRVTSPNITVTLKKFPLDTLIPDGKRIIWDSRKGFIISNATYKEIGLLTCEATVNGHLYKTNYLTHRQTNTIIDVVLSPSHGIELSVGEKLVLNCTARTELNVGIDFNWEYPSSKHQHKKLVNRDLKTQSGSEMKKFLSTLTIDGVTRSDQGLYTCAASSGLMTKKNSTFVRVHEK
light: DIQMTQSPSSLSASVGDRVTITCKASQSVSNDVAWYQQKPGKAPKLLIYYASNRYPGVPSRFSGSGSGTDFTLTISSLQPEDFATYYCQQDYSSPWTFGQGTKLEIKRTVAAPSVFIFPPSDEQLKSGTASVVCLLNNFYPREAKVQWKVDNALQSGNSQESVTEQDSKDSTYSLSSTLTLSKADYEKHKVYACEVTHQGLSSPVTKSFNRGEC
EC50 (phospho-Akt Ser473 HTRF dose-response, HUVEC + Ang2): 883 nM | Span (phospho-Akt Ser473 HTRF dose-response, HUVEC + Ang2): 14300 HTRF ratio (665nm/620nm)

B7: 31E2D4-VH4-vegfr-VL1 (bispecific antibody, human IgG4 S228P, kappa)
heavy: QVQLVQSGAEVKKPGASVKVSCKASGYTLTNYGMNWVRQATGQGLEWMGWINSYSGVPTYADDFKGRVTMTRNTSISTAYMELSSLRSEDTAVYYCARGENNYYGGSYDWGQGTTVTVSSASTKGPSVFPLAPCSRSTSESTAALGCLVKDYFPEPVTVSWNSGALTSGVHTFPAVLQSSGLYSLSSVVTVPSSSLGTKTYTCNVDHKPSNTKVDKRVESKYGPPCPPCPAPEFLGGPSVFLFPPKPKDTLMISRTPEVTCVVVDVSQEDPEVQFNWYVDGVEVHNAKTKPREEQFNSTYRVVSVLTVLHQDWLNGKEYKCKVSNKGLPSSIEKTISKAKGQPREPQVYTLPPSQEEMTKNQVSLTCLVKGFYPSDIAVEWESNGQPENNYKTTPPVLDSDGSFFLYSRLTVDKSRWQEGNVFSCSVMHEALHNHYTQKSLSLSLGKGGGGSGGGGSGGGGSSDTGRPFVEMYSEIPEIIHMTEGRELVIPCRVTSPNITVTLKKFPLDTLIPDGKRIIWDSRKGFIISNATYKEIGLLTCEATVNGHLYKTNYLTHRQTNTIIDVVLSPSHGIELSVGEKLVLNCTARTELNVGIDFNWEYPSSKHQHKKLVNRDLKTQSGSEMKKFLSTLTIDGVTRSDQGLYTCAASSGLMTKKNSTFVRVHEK
light: DIQMTQSPSSLSASVGDRVTITCKASQSVSNDVAWYQQKPGKAPKLLIYYASNRYTGVPSRFSGSGSGTDFTLTISSLQPEDFATYYCQQDYSSPLTFGGGTKLEIKRTVAAPSVFIFPPSDEQLKSGTASVVCLLNNFYPREAKVQWKVDNALQSGNSQESVTEQDSKDSTYSLSSTLTLSKADYEKHKVYACEVTHQGLSSPVTKSFNRGEC
EC50 (phospho-Akt Ser473 HTRF dose-response, HUVEC + Ang2): 2.39 nM | Span (phospho-Akt Ser473 HTRF dose-response, HUVEC + Ang2): 7380 HTRF ratio (665nm/620nm)

B8: 5F7D7-VH3-vegfr-VL5 (bispecific antibody, human IgG4 S228P, kappa)
heavy: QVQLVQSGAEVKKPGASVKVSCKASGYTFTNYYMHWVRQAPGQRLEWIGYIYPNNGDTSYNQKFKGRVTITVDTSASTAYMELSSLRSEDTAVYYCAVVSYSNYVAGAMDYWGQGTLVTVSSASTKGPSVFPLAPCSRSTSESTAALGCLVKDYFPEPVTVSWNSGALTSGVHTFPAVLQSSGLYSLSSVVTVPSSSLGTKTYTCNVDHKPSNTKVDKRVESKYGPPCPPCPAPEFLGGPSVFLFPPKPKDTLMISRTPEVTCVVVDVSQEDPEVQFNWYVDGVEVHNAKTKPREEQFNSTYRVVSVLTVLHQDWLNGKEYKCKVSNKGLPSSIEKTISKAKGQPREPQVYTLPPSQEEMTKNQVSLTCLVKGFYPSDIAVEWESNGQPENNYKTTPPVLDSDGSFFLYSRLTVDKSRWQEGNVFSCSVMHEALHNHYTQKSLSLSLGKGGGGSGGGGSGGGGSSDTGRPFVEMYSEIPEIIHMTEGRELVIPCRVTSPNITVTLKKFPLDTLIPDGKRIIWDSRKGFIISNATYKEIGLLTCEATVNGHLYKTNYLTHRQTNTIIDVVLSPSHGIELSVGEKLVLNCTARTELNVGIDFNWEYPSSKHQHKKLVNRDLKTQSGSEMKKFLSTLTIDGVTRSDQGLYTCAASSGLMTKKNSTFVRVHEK
light: DIQMTQSPSSLSASVGDRVTITCKASQSVSNDVAWYQQKPGKAPKLLIYFASNRYTGVPSRFSGSGYGTDFTFTISSLQPEDIATYFCQQDYSSPYTFGGGTKLEIKRTVAAPSVFIFPPSDEQLKSGTASVVCLLNNFYPREAKVQWKVDNALQSGNSQESVTEQDSKDSTYSLSSTLTLSKADYEKHKVYACEVTHQGLSSPVTKSFNRGEC
EC50 (phospho-Akt Ser473 HTRF dose-response, HUVEC + Ang2): ~2.12 nM | Span (phospho-Akt Ser473 HTRF dose-response, HUVEC + Ang2): 7020 HTRF ratio (665nm/620nm)

B9: 7F10B2-VH3-vegfr-VL3 (bispecific antibody, human IgG4 S228P, kappa)
heavy: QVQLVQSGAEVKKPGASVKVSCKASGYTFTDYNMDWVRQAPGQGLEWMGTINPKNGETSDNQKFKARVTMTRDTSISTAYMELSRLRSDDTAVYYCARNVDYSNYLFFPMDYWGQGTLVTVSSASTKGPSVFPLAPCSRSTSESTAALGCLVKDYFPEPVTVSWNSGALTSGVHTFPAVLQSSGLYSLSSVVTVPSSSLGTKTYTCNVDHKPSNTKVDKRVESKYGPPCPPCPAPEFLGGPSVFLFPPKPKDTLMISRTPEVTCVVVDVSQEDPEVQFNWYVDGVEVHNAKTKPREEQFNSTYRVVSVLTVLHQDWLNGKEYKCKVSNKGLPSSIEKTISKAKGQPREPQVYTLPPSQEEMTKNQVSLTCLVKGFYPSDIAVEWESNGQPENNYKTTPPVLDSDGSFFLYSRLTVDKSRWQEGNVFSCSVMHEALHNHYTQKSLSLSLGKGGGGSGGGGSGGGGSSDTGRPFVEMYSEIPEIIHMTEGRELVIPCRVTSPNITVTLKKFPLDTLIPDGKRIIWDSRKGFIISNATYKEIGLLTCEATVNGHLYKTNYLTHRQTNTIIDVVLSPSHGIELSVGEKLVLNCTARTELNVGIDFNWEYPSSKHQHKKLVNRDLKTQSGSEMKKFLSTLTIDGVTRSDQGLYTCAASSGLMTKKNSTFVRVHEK
light: DIQMTQSPSSLSASVGDRVTITCKASQSVSNDVAWYQQKPGKAPKLLIYYASNRFTGVPSRFSGSGSGTDFTLTISSLQPEDFATYYCQQDYSSRTFGGGTKVEIKRTVAAPSVFIFPPSDEQLKSGTASVVCLLNNFYPREAKVQWKVDNALQSGNSQESVTEQDSKDSTYSLSSTLTLSKADYEKHKVYACEVTHQGLSSPVTKSFNRGEC
EC50 (phospho-Akt Ser473 HTRF dose-response, HUVEC + Ang2): 2.59 nM | Span (phospho-Akt Ser473 HTRF dose-response, HUVEC + Ang2): 7330 HTRF ratio (665nm/620nm)
